The target of test [1] is T1, human IL-15 (preparation not stated) (human, UniProt P40933 49-162, limits assumed).
T1 construct: also called recombinant IL-15; recombinant human IL-15
Kind of test: ELISA. (In general: In an ELISA, binding on a coated surface is turned into a signal by an enzyme label.)

Test [2] concerns the target T2, recombinant human IL-15 (R&D systems cat. no. 247-IL) (human, UniProt P40933 49-162). Kind of test: cell-based or functional assay.
Test [3] concerns the target T3, recombinant mouse IL-15 (R&D Systems cat. no. 447-ML) (mouse, UniProt P48346 49-162).
T3 sequence: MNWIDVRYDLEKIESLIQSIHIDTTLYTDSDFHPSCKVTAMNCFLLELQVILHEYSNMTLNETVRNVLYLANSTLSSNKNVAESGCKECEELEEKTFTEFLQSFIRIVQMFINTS
Kind of test: ELISA, plate-bound recombinant mouse IL-15 (100 ng/well), HRP goat anti-human IgG, absorbance at 450 nm. How it is done: (§1) Maxisorp plates were coated with recombinant mouse IL-15 (R&D Systems cat. no. 447-ML) or rat IL-15 (Sigma cat. no. SRP4172) at 100 ng/well in carbonate coating buffer for 2 hours at 37° C. Tested IL-15 recombinant proteins have a sequence identical to that provided in SEQ ID NO: 2 (mouse IL-15) and SEQ ID NO: 3 (rat IL-15) but with an additional methionine at the N-terminal position as usually done for expressing recombinant proteins in E. Coli.
(§2) The plate was then blocked with 2% normal goat serum for 30 min at 37° C. and washed 6 times with PBS-Tween (0.05% Tween-20 in PBS, v/v). Test antibodies were added to the plate in triplicate at various dilutions in PBS-Tween and the plate was incubated with gentle rocking at room temperature for 2 hours. As positive controls, rabbit-anti-mouse IL-15 (Acris cat. no. AP01124PU-S) or rabbit anti-rat IL-15 (Biovision cat. no. 5172) antibodies were tested at the same concentrations. The plate was then washed 6 times with PBS-Tween and an appropriate dilution of HRP-conjugated goat anti-human IgG antibody (Millipore cat. no. AP309P) for humanized antibodies, or goat-anti-rabbit IgG antibody (Sigma cat. no. A 4416) for the positive controls was added and the plate was left rocking at room temperature for 1 hour. The plate was then washed 6 times with PBS-Tween and incubated with TMB substrate. The reaction was stopped by the addition of 1M H₂SO₄ and read at 450 nm. Dose response curves of absorbance versus concentration were plotted using the Graphpad Prism software.

In test [4] the target is T4, recombinant rat IL-15 (Sigma cat. no. SRP4172) (rat, UniProt P97604 49-162).
T4 sequence: T3 sequence with S19F, A82I, K95R, T96N, R106H
The test is described as follows: ELISA, plate-bound recombinant rat IL-15 (100 ng/well), HRP goat anti-human IgG, absorbance at 450 nm. As to the method:
as §1, §2

In test [5] the target is T5, recombinant Macaque Monkey IL-15 (MyBiosource cat. no. MBS948894) (Rhesus macaque / Cynomolgus monkey, UniProt P40221 49-162 (Chlorocebus aethiops entry)).
T5 construct: Produced in yeast; also called Rhesus macaque IL-15; recombinant monkey IL-15; not shown: additional N-terminal His tag
The test is described as follows: ELISA, plate-bound Macaque Monkey IL-15; printed as BC50 (half-maximal binding concentration). As to the method: (§3) Maxisorp plates were coated with recombinant human IL-15 (Prospec cat no. CYT230) or Rhesus macaque IL-15 (MyBiosource cat. no. MBS948894) at 100 ng/well in carbonate coating buffer for 2 hours at 37° C. Since published sequences of Rhesus macaque and Cynomolgus monkey IL-15 are identical, such recombinant IL-15 protein was referred to as Macaque Monkey IL-15. Tested human IL-15 recombinant protein has a sequence identical to that provided in SEQ ID NO: 1 but with an additional methionine at the N-terminal position as usually done for expressing recombinant proteins in E. Coli. Tested recombinant Macaque Monkey IL-15 was produced in yeast and has a sequence identical to that provided in SEQ ID NO: 4 but with an additional N-terminal His tag.
(§4) The plate was then blocked with 2% normal goat serum for 30 min at 37° C. and washed 6 times with PBS-Tween (0.05% Tween-20 in PBS, v/v). Test antibodies were added to the plate in triplicate at various dilutions in PBS-Tween and the plate was incubated with gentle rocking at room temperature for 2 hours. The plate was then washed 6 times with PBS-Tween and an appropriate dilution of goat anti-human IgG antibody (Millipore cat. no. AP309P) conjugated to horseradish peroxidase (HRP) was added to the plate and left rocking at room temperature for 1 hour. The plate was then washed 6 times with PBS-Tween and incubated with TMB substrate. The reaction was stopped by the addition of 1M H₂SO₄ and read at 450 nm. Dose response curves of absorbance versus concentration were plotted and analyzed to determine half-maximal binding concentrations (BC₅₀) using the Graphpad Prism software. BC₅₀ values expressed as molarity were extrapolated from concentration in ng/ml using a 150 kDa molecular weight value for all antibodies.

For test [6], the target named is T6, recombinant human IL-15 (Prospec cat no. CYT230) (human, UniProt P40933 49-162). The test is described as follows: SPR (Biacore 3000), human IL-15 amine-coupled to the chip, antibody injected, 1:1 Langmuir fit. As to the method:
Human IL-15 (Prospec cat no. CYT230) was immobilized onto a CMS chip (GE Healthcare) using standard amine coupling, and antibodies injected at various concentrations in 120 μl phosphate buffer saline with a flow rate of […]. Binding kinetics were analyzed on a Biacore 3000 apparatus (GE Healthcare) with a 300 seconds dissociation period. Reference signal and 0 nM antibody concentration signal were substracted and data fitted using a 1:1 (Langmuir) binding model.

The target in test [7] is T6, recombinant human IL-15 (Prospec cat …). The test is described as follows: ELISA, plate-bound human IL-15; printed as BC50 (half-maximal binding concentration). How it is done:
as §3, §4

Test [8] concerns the target T5, recombinant Macaque Monkey IL-15 …. The test is described as follows: cell-based or functional assay.
The target of test [9] is T2, recombinant human IL-15 (R&D systems …). The test is described as follows: cell-based or functional assay. The source holds these as a separate data set.
Test [10] has as its target T6, recombinant human IL-15 (Prospec cat …). The test is described as follows: ELISA, plate-bound recombinant human IL-15 (100 ng/well), HRP goat anti-human IgG, absorbance at 450 nm. As to the method:
as §3
The plate was then blocked with 2% normal goat serum for 30 min at 37° C. and washed 6 times with PBS-Tween (0.05% Tween-20 in PBS, v/v). […] The reaction was stopped by the addition of 1M H₂SO₄ and read at 450 nm. Dose response curves of absorbance versus concentration were plotted and analyzed to determine half-maximal binding concentrations (BC₅₀) using the Graphpad Prism software. BC₅₀ values expressed as molarity were extrapolated from concentration in ng/ml using a 150 kDa molecular weight value for all antibodies.

The target of test [11] is recombinant human IL-2 (R&D Systems cat. no. 202-IL-010) (human, UniProt P60568 21-153). Kind of test: ELISA, plate-bound recombinant human IL-2 (100 ng/well), HRP goat anti-human IgG, absorbance at 450 nm. How it is done:
Maxisorp plates were coated with recombinant human IL-2 (R&D Systems cat. no. 202-IL-010) of SEQ ID NO: 38 at 100 ng/well in carbonate coating buffer for 2 hours at 37° C. The plate was then blocked with 2% normal goat serum for 30 min at 37° C. and washed 4 times with PBS-Tween (0.05% Tween-20 in PBS, v/v). Test antibodies or positive control biotinylated antibody (anti-IL-2 Novus Bio cat. no. NBP1-43491) were added to the plate in duplicate at 5 μg/ml in PBS-Tween and the plate was incubated with gentle rocking at room temperature for 2 hours. The plate was then washed 4 times with PBS-Tween and an appropriate dilution of goat anti-human IgG antibody (Millipore cat. no. AP309P) conjugated to horseradish peroxidase (HRP) for test antibodies, or streptavidin-HRP for positive control antibody, was added to the plate and left rocking at room temperature for 1 hour. The plate was then washed 4 times with PBS-Tween and incubated with TMB (3,3′,5,5′-tetramethylbenzidine) substrate. The reaction was stopped by the addition of 1 M H₂SO₄ and read at 450 nm.

Changes are numbered by the printed parent chain.

One may read the EC50 as the midpoint of the concentration-response curve. For orientation: Kd means the concentration at which binding is half-saturated. As a reminder, the koff is the first-order rate constant of dissociation. As usually defined, the kon is the rate constant with which the complex forms. The term EC50 (read off the curve) denotes the concentration needed to bring the measured effect to its halfway point.

T2 sequence (P40933 49-162 limits assumed): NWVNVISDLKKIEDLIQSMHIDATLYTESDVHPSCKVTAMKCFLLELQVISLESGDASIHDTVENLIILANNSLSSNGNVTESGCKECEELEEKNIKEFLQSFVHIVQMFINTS
T1 sequence (P40933 49-162 limits assumed): as above
T5 sequence (P40221 49-162): as the sequence (P40933 49-162 limits assumed) above, with L52H, A57T, S58D, S73I, V80I counted along it
T6 sequence (P40933 other isoform, or with tags, fused parts or gaps): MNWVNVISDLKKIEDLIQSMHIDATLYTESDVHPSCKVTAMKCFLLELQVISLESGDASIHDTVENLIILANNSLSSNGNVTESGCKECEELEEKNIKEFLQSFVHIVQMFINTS
Sequence of recombinant human IL-2 (R&D Systems cat. no. 202-IL-010) (P60568 21-153 limits assumed): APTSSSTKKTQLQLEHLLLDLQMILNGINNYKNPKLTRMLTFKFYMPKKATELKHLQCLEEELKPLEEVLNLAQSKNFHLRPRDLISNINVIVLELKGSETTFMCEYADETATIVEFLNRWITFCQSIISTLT

B1: cVH1:cVK1 (antibody, human IgG1, kappa, V domains shown)
VH: EVRLMASGGGLVKPGGSLKLSCAASEFTFSNYAMSWVRQTPEKRLEWVATISRGGDYTYYPDSVKGRFTISRDNAKNTLYLQMSSLRSEDTALYYCARRVSMITGGWAMDYWGQGTSVTVSS
VL: DVLMTQTPLSLPVSLGDQASISCRSSQSIVDITGNTYLEWYLQKPGQSPKLLIYKVFNRFSGVPDRFSGSGSGTDFTLKISRVEAEDLGLYYCFQDSFVPYTFGGGTKLEIKR
notes: Mouse B-E29 variable regions on human IgG1 (G1m3) / kappa (Km3); also called chimeric B-E29
Consider B1, for which, in test [1], the binding result is given as “binds”.

B2: hVH1:cVK1 (antibody, human IgG1, kappa, V domains shown)
VH: B1 VH with K13Q, K19R, T40A, E42G, R44G, A75S, S84N, S88A, L93V, S117L
VL: B1 VL
notes: Human IgG1 (G1m3) / kappa (Km3)
With B2, in [1], the binding result was “binds”.

B3: cVH1:hVK1 (antibody, human IgG1, kappa, V domains shown)
VH: B1 VH
VL: DVVMTQSPLSLPVTLGQPASISCRSSQSIVDITGNTYLEWYQQRPGQSPRLLIYKVFNRFSGVPDRFSGSGSGTDFTLKISRVEAEDVGVYYCFQDSFVPYTFGQGTKLEIKR
notes: as for B2
Turning to B3, in test [1], the binding result is “binds”.

B4: huB-E29-24 (antibody, human IgG1, kappa, V domains shown)
VH: EVQLVESGGGLVQPGGSLRLSCAASEFTFSNYAMSWVRQAPGKGLEWVATISRGGDYTYYPDSVKGRFTISRDNSKNTLYLQMNSLRAEDTAVYYCARRVSMITGGYAMDYWGQGTLVTVSS
VL: B3 VL
notes: Humanized B-E29 variant; human IgG1 (G1m3) / kappa (Km3), produced in CHO cells; also called huVH18/huVL1
Regarding B4, the “IC50 in M07e cells for IL-15 trans presentation” value in [2] was 0.65 nM. In test [3], the binding result is recorded as “no binding (tested: log 3.7 (about 5000 ng/mL))”. Further, in test [4], the binding result is recorded as “no binding (tested: log 3.7 (about 5000 ng/mL))”. The EC50 in test [5] came out at 0.113 nM. For the same molecule, in test [6], the equilibrium dissociation constant (Kd) was 0.329 nM, the koff came out at 0.000574 s⁻¹ and the kon worked out at 1.75e+06 M⁻¹ s⁻¹. Besides, the 50% effective concentration (EC50) in [7] is 0.647 nM. Moreover, in test [8], the “IC50 in Kit 225 cells (nM), Macaque Monkey IL-15” value is 26.7 nM and the “IC50 in M-07e cells (nM), Macaque Monkey IL-15” value amounted to 10.4 nM. Also, in test [9], the “IC50 in Kit 225 cells (nM), Human IL-15” value came out at 29.3 nM and the “IC50 in M-07e cells (nM), Human IL-15” value turned out to be 19.1 nM.

B5: huB-E29-1 (antibody, human IgG1, kappa)
heavy: not shown
light: DVVMTQSPLSLPVTLGQPASISCRSSQSIVDITGNTYLEWYQQRPGQSPRLLIYKVFNRFSGVPDRFSGSGSGTDFTLKISRVEAEDVGVYYCFQDSFVPYTFGQGTKLEIKRTVAAPSVFIFPPSDEQLKSGTASVVCLLNNFYPREAKVQWKVDNALQSGNSQESVTEQDSKDSTYSLSSTLTLSKADYEKHKVYACEVTHQGLSSPVTKSFNRGEC
notes: Humanized B-E29 variant; human IgG1 (G1m3) / kappa (Km3), produced in CHO cells; also called huVH1/huVL1; hVH1:hVK1
On to B5, for which the 50% effective concentration (EC50 (read off the curve)) in [10] is ~0.2 µg/mL. Also, the 50% effective concentration (EC50) in test [5] was 0.487 nM; in test [7], 1.33 nM.

B6: huB-E29-10 (antibody, human IgG1, kappa, V domains shown)
VH: B4 VH with Q3R, V5M, E6A, S63T
VL: B3 VL
notes: Humanized B-E29 variant; human IgG1 (G1m3) / kappa (Km3), produced in CHO cells; also called huVH8/huVL1
For B6, the “IC50 in M07e cells for IL-15 trans presentation” value in test [2] was found to be 0.53 nM. Further, in test [3], the binding result was “no binding (tested: log 3.7 (about 5000 ng/mL))”. In addition, the binding result in test [4] was “no binding (tested: log 3.7 (about 5000 ng/mL))”. For the same molecule, the 50% effective concentration (EC50) in test [5] was found to be 0.353 nM. In [6], the Kd turned out to be 0.295 nM, the koff was 0.000423 s⁻¹ and the on-rate constant (kon) turned out to be 1.43e+06 M⁻¹ s⁻¹. In test [11], the binding result was “no binding (tested: 5 µg/ml)”. Further, the EC50 in test [7] was 0.507 nM. In test [8], the “IC50 in Kit 225 cells (nM), Macaque Monkey IL-15” value is 17.5 nM and the “IC50 in M-07e cells (nM), Macaque Monkey IL-15” value is 41.3 nM. Moreover, in test [9], the “IC50 in Kit 225 cells (nM), Human IL-15” value amounted to 17 nM and the “IC50 in M-07e cells (nM), Human IL-15” value turned out to be 4.2 nM.

B7: huB-E29-18 (antibody, human IgG1, kappa, V domains shown)
VH: B4 VH with Q3R, V5M, E6A, Y107W
VL: B3 VL with D96E
notes: Humanized B-E29 variant; human IgG1 (G1m3) / kappa (Km3), produced in CHO cells; also called huVH1/huVL4
On to B7, for which the EC50 in test [5] came to 0.367 nM; in test [7], 0.693 nM.

B8: huB-E29-4 (antibody, human IgG1, kappa, V domains shown)
VH: B4 VH with Q3R, V5M, E6A, Y107W
VL: B3 VL with Y41F
notes: Humanized B-E29 variant; human IgG1 (G1m3) / kappa (Km3), produced in CHO cells; also called huVH1/huVL2
For B8, the results for the EC50 in [5] and in [7] were 0.5 nM and 1.01 nM, respectively. Moreover, the binding result in test [11] was “no binding (tested: 5 µg/ml)”.

The values above are taken from US20170137511A1 (CALYPSO BIOTECH, published 2017).
